Test results taken from US9289478B2, “Formulations of tumour-associated peptides binding to human leukocyte antigen (HLA) class I or class II molecules for vaccine” (IMMATICS BIOTECHNOLOGIES GMBH, priority 2008, dated 2016).

How the values were obtained:
Type in all cases: physicochemical
[1] = HPLC-assay for in-use stability after reconstitution with 4.2% sodium hydrogen carbonate solution (Example 3, peptides SEQ ID NO 11-23)
Description: For clinical trials the above described formulation is dissolved in 700 μl sodium hydrogen carbonate (4.2%). To dissolve the lyophilisate, the vial and the diluent shall be shaken vigorously for 1 minute, check whether solution is clear, otherwise continue shaking for another minute until the solution is clear. Administration of 500 μL of the solution has to occur within 1 h after reconstitution. Dissolved lyophilisate may be stored aseptically at room temperature for up to 1 hour following reconstitution.
(§1) Identity, purity and peptide content are determined by analytical RP-HPLC chromatography. Detection wavelength was 220 nm.

[2] = HPLC-assay for stability of peptides in lyophilised formulation on storage for 3 months (Example 4); conditions: for stability of peptides in formulation, 1 M: 1 month; for stability of peptides in formulation, 2 M: 2 months; for stability of peptides in formulation, 3 M: 3 months
Description: as §1

[3] = HPLC-assay for in-use stability after reconstitution with 4.2% sodium hydrogen carbonate solution (Example 2, peptides SEQ ID NO 1-10)
Description: Resolubilization procedure: For clinical trials the above described formulation is dissolved in 700 μl sodium hydrogen carbonate (4.2%). Remove plastic cap from one vial. Unpack and remove sodium hydrogen carbonate (4.2%) from the refrigerator at least 30 min before resolubilization to bring them up to room temperature before injection. Prepare syringe and needle for reconstitution. Use aseptic technique to take 700 μL of diluent for reconstitution of the lyophilisate. To dissolve the lyophilisate, the vial and the diluent shall be shaken vigorously for 1 minute, check whether solution is clear, otherwise continue shaking for another minute until the solution is clear. 10 to 30 minutes after GM-CSF injection, use a new syringe to administer 500 μL reconstituted formulation i.d. at the same site. Administration has to occur within 1 h after reconstitution. Dissolved lyophilisate may be stored aseptically at room temperature for up to 1 hour following reconstitution.
However, a decrease of two specific peptides, i.e. IMA-CCN-001 and IMA-RGS-001 took place (see Table 6). As these peptides contain a cysteine residue, time-depending dimerization takes place.
as §1

[4] = +mannitol/lutrol, 1 h after reconstitution
[5] = +mannitol/lutrol, 2 h after reconstitution
[6] = +mannitol/lutrol, 3 h after reconstitution
[7] = +mannitol/lutrol, 4 h after reconstitution
[8] = +mannitol/lutrol, 5 h after reconstitution
[9] = +mannitol/lutrol, 6 h after reconstitution
[10] = +mannitol/lutrol, Initial (starting value set to 100%)
[11] = no excipients, 1 h after reconstitution
[12] = no excipients, 2 h after reconstitution
[13] = no excipients, 3 h after reconstitution
[14] = no excipients, Initial (starting value set to 100%)

Row | Sequence | in-use stability, Peptide [%] ([1]; +Mannitol/Lutrol, 2h) | in-use stability, Peptide [%] ([1]; +Mannitol/Lutrol, 4h) | in-use stability, Peptide [%] ([1]; +Mannitol/Lutrol, 6h) | in-use stability, Peptide [%] ([1]; +Mannitol/Lutrol, Initial) | in-use stability, Peptide [%] ([1]; no excipients, 2h) | in-use stability, Peptide [%] ([1]; no excipients, 4h) | in-use stability, Peptide [%] ([1]; no excipients, 6h) | in-use stability, Peptide [%] ([1]; no excipients, Initial) | stability of peptides in formulation, 1 M ([2]; +5° C. +/- 3° C.) | in-use stability, peptide by HPLC-assay [3, 4] [%] | in-use stability, peptide by HPLC-assay [3, 5] [%] | in-use stability, peptide by HPLC-assay [3, 6] [%] | in-use stability, peptide by HPLC-assay [3, 7] [%] | in-use stability, peptide by HPLC-assay [3, 8] [%] | in-use stability, peptide by HPLC-assay [3, 9] [%] | in-use stability, peptide by HPLC-assay [3, 10] [%] | in-use stability, peptide by HPLC-assay [3, 11] [%] | in-use stability, peptide by HPLC-assay [3, 12] [%] | in-use stability, peptide by HPLC-assay [3, 13] [%] | in-use stability, peptide by HPLC-assay [3, 14] [%] | other results
1 | KVFAGIPTV (listed as Homo sapiens) [PTP-005, Protein tyrosine phosphatase, receptor-type, Z polypeptide 1 peptide] | 100.1 | 100.3 | 99.8 | 100.0 | 99.9 | 100.4 | 95.8 | 100.0 | 98.93 % of Initial | – | – | – | – | – | – | – | – | – | – | – | stability of peptides in formulation, 2 M ([2]; +5° C. +/- 3° C.): 97.79 % of Initial; stability of peptides in formulation, 3 M ([2]; +5° C. +/- 3° C.): 98.67 % of Initial; stability of peptides in formulation, INITIAL ([2]; +5° C. +/- 3° C.): 100.0%; stability of peptides in formulation, 1 M ([2]; +25° C. +/- 2° C.): 98.16 % of Initial; stability of peptides in formulation, 2 M ([2]; +25° C. +/- 2° C.): 97.10 % of Initial; stability of peptides in formulation, 3 M ([2]; +25° C. +/- 2° C.): 98.30 % of Initial; stability of peptides in formulation, INITIAL ([2]; +25° C. +/- 2° C.): 100.0%; stability of peptides in formulation, 1 M ([2]; -20° C. +/- 5° C.): 98.99 % of Initial; stability of peptides in formulation, 2 M ([2]; -20° C. +/- 5° C.): 97.41 % of Initial; stability of peptides in formulation, 3 M ([2]; -20° C. +/- 5° C.): 98.34 % of Initial; stability of peptides in formulation, INITIAL ([2]; -20° C. +/- 5° C.): 100.0%
2 | KIQEILTQV (listed as Homo sapiens) [IGF2BP3-001] | 100.4 | 100.6 | 100.7 | 100.0 | 100.0 | 101.2 | 96.0 | 100.0 | 99.00 % of Initial | – | – | – | – | – | – | – | – | – | – | – | stability of peptides in formulation, 2 M ([2]; +5° C. +/- 3° C.): 97.92 % of Initial; stability of peptides in formulation, 3 M ([2]; +5° C. +/- 3° C.): 98.57 % of Initial; stability of peptides in formulation, INITIAL ([2]; +5° C. +/- 3° C.): 100.0%; stability of peptides in formulation, 1 M ([2]; +25° C. +/- 2° C.): 98.01 % of Initial; stability of peptides in formulation, 2 M ([2]; +25° C. +/- 2° C.): 96.77 % of Initial; stability of peptides in formulation, 3 M ([2]; +25° C. +/- 2° C.): 97.34 % of Initial; stability of peptides in formulation, INITIAL ([2]; +25° C. +/- 2° C.): 100.0%; stability of peptides in formulation, 1 M ([2]; -20° C. +/- 5° C.): 99.10 % of Initial; stability of peptides in formulation, 2 M ([2]; -20° C. +/- 5° C.): 97.54 % of Initial; stability of peptides in formulation, 3 M ([2]; -20° C. +/- 5° C.): 98.42 % of Initial; stability of peptides in formulation, INITIAL ([2]; -20° C. +/- 5° C.): 100.0%
3 | ALFDGDPHL (listed as Homo sapiens) [K67-001, KIAA0367 tumour-associated peptide] | – | – | – | – | – | – | – | – | – | 99.8 | 100.4 | 101.6 | 101.8 | 100.6 | 102.5 | 100.0 | 100.8 | 99.2 | 97.5 | 100.0 | –
4 | TLGEFLKLDRERAKN (listed as Homo sapiens) [BIR-002, Baculoviral IAP repeat-containing 5 (survivin) peptide] | 100.8 | 101.2 | 100.9 | 100.0 | 100.6 | 101.4 | 96.2 | 100.0 | 98.53 % of Initial | – | – | – | – | – | – | – | – | – | – | – | stability of peptides in formulation, 2 M ([2]; +5° C. +/- 3° C.): 97.28 % of Initial; stability of peptides in formulation, 3 M ([2]; +5° C. +/- 3° C.): 100.01 % of Initial; stability of peptides in formulation, INITIAL ([2]; +5° C. +/- 3° C.): 100.0%; stability of peptides in formulation, 1 M ([2]; +25° C. +/- 2° C.): 97.49 % of Initial; stability of peptides in formulation, 2 M ([2]; +25° C. +/- 2° C.): 96.24 % of Initial; stability of peptides in formulation, 3 M ([2]; +25° C. +/- 2° C.): 98.93 % of Initial; stability of peptides in formulation, INITIAL ([2]; +25° C. +/- 2° C.): 100.0%; stability of peptides in formulation, 1 M ([2]; -20° C. +/- 5° C.): 98.43 % of Initial; stability of peptides in formulation, 2 M ([2]; -20° C. +/- 5° C.): 96.98 % of Initial; stability of peptides in formulation, 3 M ([2]; -20° C. +/- 5° C.): 100.14 % of Initial; stability of peptides in formulation, INITIAL ([2]; -20° C. +/- 5° C.): 100.0%
5 | ALADGVQKV (listed as Homo sapiens) [APO-001, Apolipoprotein L1 tumour-associated peptide] | – | – | – | – | – | – | – | – | – | 99.8 | 99.8 | 100.7 | 100.9 | 99.6 | 101.5 | 100.0 | 100.0 | 97.4 | 97.4 | 100.0 | –
6 | SQDDIKGIQKLYGKRS (listed as Homo sapiens) [MMP-001, Matrix metalloproteinase 7 tumour-associated peptide] | – | – | – | – | – | – | – | – | – | 99.5 | 99.3 | 100.2 | 100.4 | 98.9 | 100.9 | 100.0 | 98.6 | 97.1 | 95.7 | 100.0 | –
7 | VMAGDIYSV (listed as Homo sapiens) [ADF-002, Adipophilin tumour-associated peptide] | – | – | – | – | – | – | – | – | – | 99.9 | 100.0 | 101.1 | 101.2 | 99.9 | 101.9 | 100.0 | 100.9 | 100.0 | 97.2 | 100.0 | –
8 | SVFAGVVGV (listed as Homo sapiens) [GUC-001, GUCY1A3 tumour-associated peptide] | – | – | – | – | – | – | – | – | – | 99.7 | 99.5 | 100.6 | 100.8 | 99.7 | 101.6 | 100.0 | 100.0 | 100.0 | 98.6 | 100.0 | –
9 | LLGATCMFV (listed as Homo sapiens) [CCN-001, Cyclin D1 tumour-associated peptide] | – | – | – | – | – | – | – | – | – | 95.6 | 92.2 | 91.3 | 89.2 | 86.1 | 85.9 | 100.0 | 82.8 | 72.1 | 63.3 | 100.0 | stability after reconstitution (in words) ([3]; Example 2 formulation, 4.2% sodium hydrogen carbonate): decrease
10 | YVDPVITSI (listed as Homo sapiens) [MET-001, c-met proto-oncogene tumour-associated peptide] | – | – | – | – | – | – | – | – | – | 99.8 | 99.8 | 101.0 | 101.1 | 99.8 | 101.7 | 100.0 | 100.0 | 99.2 | 96.7 | 100.0 | –
